In US20250276018A1 (AFFYIMMUNE THERAPEUTICS, published 2025):

Legend:
[1] = molecular target: T1, c-MET on human target cells (human, UniProt P08581 25-1390); assay: cell-based or functional assay
[2] = molecular target: T2, AF647 labeled c-met protein (UniProt P08581 25-932, limits assumed, labeled with AlexaFluor 647 (AF647)); assay: flow cytometry, EC50 relative to parental Affy7 CAR-T cells (Round 1)
T2 construct: Soluble labeled c-met protein titrated on CAR-T cells
Procedure: (§1) Binding of labeled c-MET to CAR-T cells expressing the affinity tuned c-MET scFvs was evaluated by transducing lentivirus anti-c-MET CAR particles into human T cells to form c-MET CAR-T cells incubated with AF647-labeled c-MET. […] Following a 48 hr. incubation at 37° C., the culture media was brought up to […] per well and incubated at 37° C. for 10 days.
(§2) Cells were stained on ice for 30 mins and then washed with PBS. After washing, residually bound protein on CAR T cells were measured on a flow cytometer (Beckman, CytoFLEX®). The resulting binding data was fit using a non-linear regression analysis on GraphPad Prism to calculate half effective dose concentration (EC₅₀) values. The results of this analysis are shown in FIGS. 2-5 and Tables 2-5 below.

[3] = molecular target: T2, AF647 labeled c-met protein; assay: flow cytometry, AF647-labeled c-met protein titrated on CAR-T cells (Round 1)
Procedure: as §1, §2

[4] = molecular target: T1, c-MET on human target cells; assay: cell-based or functional assay; remark: listed apart in the source
[5] = molecular target: T2, AF647 labeled c-met protein; assay: flow cytometry, AF647-labeled c-met protein on CAR-T cells; lower end tied to Affy7-L9A by Table 2
Procedure: as §2

[6] = molecular target: T1, c-MET on human target cells; assay: cell-based or functional assay; remark: listed apart in the source
[7] = molecular target: T1, c-MET on human target cells; assay: cell-based or functional assay; remark: listed apart in the source

T2 sequence (P08581 25-932 limits assumed): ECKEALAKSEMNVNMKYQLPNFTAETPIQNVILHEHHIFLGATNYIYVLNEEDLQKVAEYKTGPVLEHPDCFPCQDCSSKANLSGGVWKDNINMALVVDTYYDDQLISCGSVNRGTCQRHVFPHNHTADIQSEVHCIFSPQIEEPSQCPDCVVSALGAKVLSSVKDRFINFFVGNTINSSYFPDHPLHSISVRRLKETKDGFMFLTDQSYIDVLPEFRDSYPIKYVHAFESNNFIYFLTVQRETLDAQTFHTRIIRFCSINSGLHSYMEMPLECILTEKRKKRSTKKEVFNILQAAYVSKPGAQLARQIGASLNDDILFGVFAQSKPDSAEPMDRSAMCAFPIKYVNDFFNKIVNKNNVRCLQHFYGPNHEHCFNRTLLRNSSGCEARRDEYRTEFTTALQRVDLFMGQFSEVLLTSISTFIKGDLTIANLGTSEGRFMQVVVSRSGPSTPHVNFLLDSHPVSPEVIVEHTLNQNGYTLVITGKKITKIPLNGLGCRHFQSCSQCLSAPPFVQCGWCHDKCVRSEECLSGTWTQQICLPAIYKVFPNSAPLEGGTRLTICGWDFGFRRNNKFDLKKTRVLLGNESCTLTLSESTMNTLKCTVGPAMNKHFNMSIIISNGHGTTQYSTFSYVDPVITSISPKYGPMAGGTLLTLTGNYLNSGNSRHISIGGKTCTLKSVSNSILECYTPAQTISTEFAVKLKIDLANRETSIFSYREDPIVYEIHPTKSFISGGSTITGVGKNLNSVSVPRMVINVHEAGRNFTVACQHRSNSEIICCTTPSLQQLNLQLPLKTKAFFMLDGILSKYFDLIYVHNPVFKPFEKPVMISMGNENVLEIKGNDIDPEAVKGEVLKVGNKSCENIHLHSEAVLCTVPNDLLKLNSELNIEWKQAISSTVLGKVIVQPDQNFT
T1 sequence (P08581 25-1390): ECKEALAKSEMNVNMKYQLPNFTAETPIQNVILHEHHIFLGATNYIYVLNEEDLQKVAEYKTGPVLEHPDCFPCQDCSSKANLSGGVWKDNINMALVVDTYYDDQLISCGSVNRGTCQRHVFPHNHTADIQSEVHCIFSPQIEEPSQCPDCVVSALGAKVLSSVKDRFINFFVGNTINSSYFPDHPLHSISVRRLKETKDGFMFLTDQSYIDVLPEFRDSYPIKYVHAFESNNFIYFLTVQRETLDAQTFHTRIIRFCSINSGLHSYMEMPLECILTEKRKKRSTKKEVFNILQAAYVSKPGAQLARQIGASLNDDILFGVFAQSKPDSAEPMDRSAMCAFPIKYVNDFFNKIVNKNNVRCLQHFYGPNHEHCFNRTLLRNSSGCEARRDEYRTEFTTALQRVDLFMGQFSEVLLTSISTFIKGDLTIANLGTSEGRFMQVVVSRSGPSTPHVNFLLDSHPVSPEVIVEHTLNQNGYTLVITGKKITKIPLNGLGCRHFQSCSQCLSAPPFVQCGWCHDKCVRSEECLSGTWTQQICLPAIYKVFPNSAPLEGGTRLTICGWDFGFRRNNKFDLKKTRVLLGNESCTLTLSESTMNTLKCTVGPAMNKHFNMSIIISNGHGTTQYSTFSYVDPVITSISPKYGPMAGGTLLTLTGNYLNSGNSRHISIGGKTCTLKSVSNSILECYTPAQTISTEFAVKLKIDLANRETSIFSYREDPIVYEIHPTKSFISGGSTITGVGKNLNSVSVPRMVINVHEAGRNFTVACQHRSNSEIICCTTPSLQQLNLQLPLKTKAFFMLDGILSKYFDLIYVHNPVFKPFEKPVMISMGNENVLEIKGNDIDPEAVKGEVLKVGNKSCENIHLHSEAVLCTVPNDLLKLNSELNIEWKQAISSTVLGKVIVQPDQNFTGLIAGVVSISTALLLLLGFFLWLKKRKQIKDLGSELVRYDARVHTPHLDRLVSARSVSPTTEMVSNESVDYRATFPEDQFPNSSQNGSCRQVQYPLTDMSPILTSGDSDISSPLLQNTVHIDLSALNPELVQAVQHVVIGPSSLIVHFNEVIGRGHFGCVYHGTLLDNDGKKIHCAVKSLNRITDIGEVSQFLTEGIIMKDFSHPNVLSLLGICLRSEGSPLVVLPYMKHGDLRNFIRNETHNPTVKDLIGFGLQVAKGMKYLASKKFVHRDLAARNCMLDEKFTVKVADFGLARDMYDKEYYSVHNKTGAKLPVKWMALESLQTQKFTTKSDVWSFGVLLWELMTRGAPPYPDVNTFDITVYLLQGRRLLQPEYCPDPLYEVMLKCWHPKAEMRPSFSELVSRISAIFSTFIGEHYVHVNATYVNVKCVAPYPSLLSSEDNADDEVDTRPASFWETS

- Fold Change [2]: 20 fold
- EC50 [3]: 1 µM
- fold reduction in affinity relative to the parental-expressing CARs [5]: 20 to 7640 fold
B1: Affy7-L9A CAR (other)
chain: GSEQKLISEEDLGSQVQLQQSGPELVRPGASVKMSCRASGYTFTSYWLHWVKQRPGQGLEWIGMIDPSNSDTRFNPNFKDKATLNVDRSSNTAYMLLSSLTSADSAVYYCATYGSYVSPADYWGQGTSVTVSSGGGGSGGGGSGGGGSDIMMSQSPSSLTVSVGEKVTVSCKSSQSLLYTSSQKNYLAWYQQKPGQSPKLLIYWASTRESGVPDRFTGSGSGTDFTLTITSVKADDLAVYYCQQYYAYPWTFGGGTKLEIKRASTTTPAPRPPTPAPTIASQPLSLRPEACRPAAGGAVHTRGLDFACDFWVLVVVGGVLACYSLLVTVAFIIFWVRSKRSRLLHSDYMNMTPRRPGPTRKHYQPYAPPRDFAAYRSLRVKFSRSADAPAYQQGQNQLYNELNLGRREEYDVLDKRRGRDPEMGGKPRRKNPQEGLYNELQKDKMAEAYSEIGMKGERRRGKGHDGLYQGLSTATKDTYDALHMQALPPR
notes: CAR on transduced human T cells; L to A in HC CDR3; P2A remnant not included; also called MycT-Affy7-L9A CAR-SSTR2
- cytotoxicity, Normal Human Kidney Cells, 8 hrs [1]: 12.9
- cytotoxicity, Normal Human Kidney Cells, 16 hrs [1]: 23.9
- cytotoxicity, Normal Human Kidney Cells, 24 hrs [1]: 30.7
- cytotoxicity, Normal Human Kidney Cells, 32 hrs [1]: 38.8
- cytotoxicity, Normal Human Kidney Cells, 40 hrs [1]: 46.9
- cytotoxicity, Normal Human Kidney Cells, 48 hrs [1]: 54.7
- cytotoxicity, Normal Human Colon Cells, 8 hrs [4]: 12.1
- cytotoxicity, Normal Human Colon Cells, 16 hrs [4]: 25
- cytotoxicity, Normal Human Colon Cells, 24 hrs [4]: 27.2
- cytotoxicity, Normal Human Colon Cells, 32 hrs [4]: 38.2
- cytotoxicity, Normal Human Colon Cells, 40 hrs [4]: 48.5
- cytotoxicity, Normal Human Colon Cells, 48 hrs [4]: 49.6
- cytotoxicity, Normal Human Lung Cells, 8 hrs [6]: 7.5
- cytotoxicity, Normal Human Lung Cells, 16 hrs [6]: 20.9
- cytotoxicity, Normal Human Lung Cells, 24 hrs [6]: 38.3
- cytotoxicity, Normal Human Lung Cells, 32 hrs [6]: 46.4
- cytotoxicity, Normal Human Lung Cells, 40 hrs [6]: 50.7
- cytotoxicity, Normal Human Lung Cells, 47 hrs [6]: 45.3
- cytotoxicity, Normal Human Liver Cells, 8 hrs [7]: 13.7
- cytotoxicity, Normal Human Liver Cells, 16 hrs [7]: 24.5
- cytotoxicity, Normal Human Liver Cells, 24 hrs [7]: 32.8
- cytotoxicity, Normal Human Liver Cells, 32 hrs [7]: 37.9
- cytotoxicity, Normal Human Liver Cells, 40 hrs [7]: 50.1
- cytotoxicity, Normal Human Liver Cells, 48 hrs [7]: 60
